{"source": "patent US20050215503", "about": "“HIF oligonucleotide decoy molecules” (published 2005)"}
{"target": "T1, HIF-1 (HIF-1alpha/HIF-1beta (ARNT) heterodimer) (UniProt Q16665;P27540 Q16665:1-826,P27540:2-789)", "T1 sequence (Q16665 whole entry, chain 1 of 2)": "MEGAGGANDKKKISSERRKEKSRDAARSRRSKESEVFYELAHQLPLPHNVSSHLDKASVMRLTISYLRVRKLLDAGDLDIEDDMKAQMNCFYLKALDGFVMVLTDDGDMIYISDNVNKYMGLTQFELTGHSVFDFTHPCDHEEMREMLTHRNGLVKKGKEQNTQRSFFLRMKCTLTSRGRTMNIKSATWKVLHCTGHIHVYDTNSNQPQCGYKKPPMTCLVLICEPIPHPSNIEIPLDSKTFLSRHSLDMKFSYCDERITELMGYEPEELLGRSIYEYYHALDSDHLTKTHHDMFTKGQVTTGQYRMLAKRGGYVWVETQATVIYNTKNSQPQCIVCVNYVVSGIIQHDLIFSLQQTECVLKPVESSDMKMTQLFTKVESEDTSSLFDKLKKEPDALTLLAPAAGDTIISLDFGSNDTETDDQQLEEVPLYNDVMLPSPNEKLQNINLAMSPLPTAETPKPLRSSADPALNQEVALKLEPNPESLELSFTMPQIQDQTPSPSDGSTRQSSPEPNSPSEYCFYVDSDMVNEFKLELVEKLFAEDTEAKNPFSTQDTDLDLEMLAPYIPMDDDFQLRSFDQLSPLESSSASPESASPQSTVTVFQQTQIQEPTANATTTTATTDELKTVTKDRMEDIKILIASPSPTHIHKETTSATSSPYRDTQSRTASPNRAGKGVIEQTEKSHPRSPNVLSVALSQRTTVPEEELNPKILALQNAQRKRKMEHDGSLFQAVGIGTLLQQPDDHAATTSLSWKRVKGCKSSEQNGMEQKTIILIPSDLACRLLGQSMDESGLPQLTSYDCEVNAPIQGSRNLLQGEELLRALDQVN", "T1 sequence (P27540 2-789, chain 2 of 2)": "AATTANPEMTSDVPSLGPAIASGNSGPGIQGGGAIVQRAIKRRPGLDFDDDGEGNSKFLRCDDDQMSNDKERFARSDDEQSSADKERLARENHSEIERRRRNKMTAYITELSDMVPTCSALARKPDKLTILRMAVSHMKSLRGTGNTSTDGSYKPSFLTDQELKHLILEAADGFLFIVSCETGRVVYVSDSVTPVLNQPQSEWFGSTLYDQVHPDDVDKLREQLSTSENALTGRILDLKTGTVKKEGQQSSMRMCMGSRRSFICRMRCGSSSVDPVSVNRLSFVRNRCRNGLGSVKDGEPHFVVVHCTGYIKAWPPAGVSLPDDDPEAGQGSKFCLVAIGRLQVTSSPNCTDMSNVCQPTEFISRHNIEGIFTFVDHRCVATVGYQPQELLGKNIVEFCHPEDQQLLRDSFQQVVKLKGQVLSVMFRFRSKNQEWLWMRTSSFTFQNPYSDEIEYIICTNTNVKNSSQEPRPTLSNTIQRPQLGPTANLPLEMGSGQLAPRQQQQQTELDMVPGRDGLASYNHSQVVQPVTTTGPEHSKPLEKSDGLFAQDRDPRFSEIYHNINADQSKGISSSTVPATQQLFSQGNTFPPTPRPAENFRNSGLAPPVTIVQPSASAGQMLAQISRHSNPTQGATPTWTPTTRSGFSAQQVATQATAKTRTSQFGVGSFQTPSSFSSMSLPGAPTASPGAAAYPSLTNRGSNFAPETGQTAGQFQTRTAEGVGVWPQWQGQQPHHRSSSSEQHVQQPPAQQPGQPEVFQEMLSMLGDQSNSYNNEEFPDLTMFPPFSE", "test": "competition; 2.5-fold molar excess", "conditions": "protein: extract; tags: none (endogenous, nuclear extract)", "units": {"binding signal": "ratio"}}
{"binder": "895/896 H3/H3 (dsDNA, PS at 3 linkages from 3' end, both strands) DNA 1: CACCAGCGTACGTGCCTCAGG DNA 2: CCTGAGGCACGTACGCTGGTG", "binding signal": 1.33}
{"binder": "895/896 H5/PO (dsDNA, 895: PS at 5 linkages from 3' end; 896: unmodified) DNA 1: CACCAGCGTACGTGCCTCAGG DNA 2: CCTGAGGCACGTACGCTGGTG", "binding signal": 1.27}
{"binder": "895/896 H6/H6 (dsDNA, PS at 6 linkages from 3' end, both strands) DNA 1: CACCAGCGTACGTGCCTCAGG DNA 2: CCTGAGGCACGTACGCTGGTG", "binding signal": 1.01}
{"binder": "895/896 PS/PO (dsDNA, 895: full PS; 896: unmodified) DNA 1: CACCAGCGTACGTGCCTCAGG DNA 2: CCTGAGGCACGTACGCTGGTG", "binding signal": 0.52}
{"binder": "895/896 H5/H5 (dsDNA, PS at 5 linkages from 3' end, both strands) DNA 1: CACCAGCGTACGTGCCTCAGG DNA 2: CCTGAGGCACGTACGCTGGTG", "binding signal": 1.34}
{"binder": "895/896 PS/PS (dsDNA, full PS both strands) DNA 1: CACCAGCGTACGTGCCTCAGG DNA 2: CCTGAGGCACGTACGCTGGTG", "binding signal": 0.98}
{"binder": "895/896 H2/H2 (dsDNA, PS at 2 linkages from 3' end, both strands) DNA 1: CACCAGCGTACGTGCCTCAGG DNA 2: CCTGAGGCACGTACGCTGGTG", "binding signal": 0.86}
{"binder": "895/896 H4/H4 (dsDNA, PS at 4 linkages from 3' end, both strands) DNA 1: CACCAGCGTACGTGCCTCAGG DNA 2: CCTGAGGCACGTACGCTGGTG", "binding signal": 1.42}
{"binder": "895/896 H3/PS (dsDNA, 895: PS at 3 linkages from 3' end; 896: full PS) DNA 1: CACCAGCGTACGTGCCTCAGG DNA 2: CCTGAGGCACGTACGCTGGTG", "binding signal": 1.38}
{"target": "T1, HIF-1 (HIF-1alpha/HIF-1beta (ARNT) …)", "test": "competition; TransAM; two sites", "conditions": "protein: extract; tags: none (endogenous, nuclear extract)", "experimental": "(§1) To assess the relative affinities of oligonucleotides for a HIF-1α containing complex, the HIF-1 TransAM assay (Active Motif, Catalog # 47096) was utilized. The assay was performed according to manufacturer's instructions. Briefly, a double-stranded oligonucletide containing the hypoxia response element (HRE) was immobilized on a 96-well plate. A nuclear extract containing HIF-1α complexes was incubated and allowed to bind to the immobilized oligonucleotide. The unbound material was washed away and the bound HIF-1α detected using an antibody that specificially recognizes HIF-1α. The anti-HIF-1α antibody was detected by a secondary antibody labeled with horseradish peroxidase (HRP), and the amount of HRP in each well was measured using a calorimetric substrate reaction and read using a microplate spectrophotometer.\n(§2) The ability of candidate decoy molecules to compete for binding of HIF-1α to the HRE element-immobilized on the plate were measured and compared to reveal relative binding affinities. Candidate decoys were added in increasing molar ratios (relative to the amount of oligo immobilized on the plate) to compete for binding to the HIF-1α containing complexes. The amounts of decoys added to the assay included 0.625, 1.25, 2.5, 5, 10 and 20 fold molar excess. A well containing a competing decoy able to bind HIF-1α with high affinity would give a lower absorbance reading as compared to a decoy with low affinity for HIF-1α. All potential decoys were then compared and ranked in order to assess their relative binding affinities.\n(§3) The screen was conducted using different decoy concentrations. For each UV absorbance reading, normalization was done by calculating the ratio of absorbance readings of sample vs. wild type control. The bigger ratio represents less competition of binding with HIF-1α when compared with wild-type control. The smaller (smaller than 1.0 or close to 1.0) ratios represent better binding or better competition.", "units": {"binding signal": "ratio"}}
{"binder": "decoy 841/842 double (dsDNA) DNA 1: AGCGGACGTGCAGAAGTTGCACGTCCTCT DNA 2: AGAGGACGTGCAACTTCTGCACGTCCGCT", "binding signal": 0.99}
{"binder": "decoy 909 double (dsDNA) DNA 1: AGCGGACGTGCAGATGCACGTCCTCT DNA 2: AGAGGACGTGCATCTGCACGTCCGCT", "binding signal": 1.72}
{"binder": "decoy 819/820 double (dsDNA) DNA 1: GAAATACGTGCGCTTTGTGTGTACGTGCAGGAA DNA 2: TTCCTGCACGTACACACAAAGCGCACGTATTTC", "binding signal": 1.16}
{"binder": "decoy 857/858 double (dsDNA) DNA 1: GCGGACGTGCGGGAACCCACGTGTAGG DNA 2: CCTACACGTGGGTTCCCGCACGTCCGC", "binding signal": 2.46}
{"binder": "decoy 907 double (dsDNA) DNA 1: GAAATACGTGCGTGTGTACGTGCAGG DNA 2: CCTGCACGTACACACGCACGTATTTC", "binding signal": 0.91}
{"target": "T1, HIF-1 (HIF-1alpha/HIF-1beta (ARNT) …)", "test": "competition; TransAM", "conditions": "protein: extract; tags: none (endogenous, nuclear extract)", "experimental": "as §1, §2, §3", "units": {"binding signal": "ratio"}}
{"binder": "decoy 823/824 (dsDNA) DNA 1: TGCATACGTGGGCTCCAACAG DNA 2: CTGTTGGAGCCCACGTATGCA", "binding signal": 4.4}
{"binder": "decoy 885/886 (dsDNA) DNA 1: TACAGACGTGCAGGTC DNA 2: GACCTGCACGTCTGTA", "binding signal": 4.46}
{"binder": "decoy 933 (dsDNA) DNA 1: CCAGCGTATGTGCCTCAGG DNA 2: CCTGAGGCACATACGCTGG", "binding signal": 3.47}
{"binder": "decoy 983 (dsDNA) DNA 1: CCAGCGTACGTGTCTCAGG DNA 2: CCTGAGACACGTACGCTGG", "binding signal": 1.3}
{"binder": "decoy 985 (dsDNA) DNA 1: CCAGCGTACGTGACTCAGG DNA 2: CCTGAGTCACGTACGCTGG", "binding signal": 0.91}
{"binder": "decoy 817/818 (dsDNA) DNA 1: CTGCCGACGTGCGCTCCGGAG DNA 2: CTCCGGAGCGCACGTCGGCAG", "binding signal": 4.81}
{"binder": "decoy 875/876 (dsDNA) DNA 1: TGCAGACGTGCAGGTC DNA 2: GACCTGCACGTCTGCA", "binding signal": 2.63}
{"binder": "decoy 981 (dsDNA) DNA 1: CCAGCGTACGTGGCTCAGG DNA 2: CCTGAGCCACGTACGCTGG", "binding signal": 1.7}
{"binder": "decoy 865/866 (dsDNA) DNA 1: AGCAGACGTGCAGGCA DNA 2: TGCCTGCACGTCTGCT", "binding signal": 2.56}
{"binder": "decoy 825/826 (dsDNA) DNA 1: AGGAGACGTGCGAGAA DNA 2: TTCTCGCACGTCTCCT", "binding signal": 5.1}
{"binder": "decoy 809/810 (dsDNA) DNA 1: AGGGCCGGACGTGGGGCCCC DNA 2: GGGGCCCCACGTCCGGCCCT", "binding signal": 4.57}
{"binder": "decoy 853/854 (dsDNA) DNA 1: TTGCTTACGTGCGCCCGG DNA 2: CCGGGCGCACGTAAGCAA", "binding signal": 1.73}
{"binder": "decoy 891/892 (dsDNA) DNA 1: GGCTGCTGCATACGTGCAGGTC DNA 2: GACCTGCACGTATGCAGCAGCC", "binding signal": 1.21}
{"binder": "decoy 935 (dsDNA) DNA 1: CCAGCGTAAGTGCCTCAGG DNA 2: CCTGAGGCACTTACGCTGG", "binding signal": 2.43}
{"binder": "decoy 997 (dsDNA) DNA 1: CCGGGGCACGTGCCCCAGG DNA 2: CCTGGGGCACGTGCCCCGG", "binding signal": 1.28}
{"binder": "decoy 845/846 (dsDNA) DNA 1: GAGCGTACGTGCCTCAGG DNA 2: CCTGAGGCACGTACGCTC", "binding signal": 1.59}
{"binder": "decoy 843/844 (dsDNA) DNA 1: GTGCATACGTGGGCTCCA DNA 2: TGGAGCCCACGTATGCAC", "binding signal": 1.7}
{"binder": "decoy 851/852 (dsDNA) DNA 1: CGGAGTACGTGACGGAGC DNA 2: GCTCCGTCACGTACTCCG", "binding signal": 1.41}
{"binder": "decoy 881/882 (dsDNA) DNA 1: GGCTGCAGGAGACGTGGAGAA DNA 2: TTCTCCACGTCTCCTGCAGCC", "binding signal": 3.62}
{"binder": "decoy 999 (dsDNA) DNA 1: CCATGGCACGTGCCTCAGG DNA 2: CCTGAGGCACGTGCCATGG", "binding signal": 1.3}
{"binder": "decoy 901 (dsDNA) DNA 1: CACGTGCATACGTGGGCTCCA DNA 2: TGGAGCCCACGTATGCACGTG", "binding signal": 1.6}
{"binder": "decoy 863/864 (dsDNA) DNA 1: AGCAGACGTGCAGGAT DNA 2: ATCCTGCACGTCTGCT", "binding signal": 2.15}
{"binder": "decoy 889/890 (dsDNA) DNA 1: TGCATACGTGCAGGTC DNA 2: GACCTGCACGTATGCA", "binding signal": 4.14}
{"binder": "decoy 879/880 (dsDNA) DNA 1: GGCTGCTGCAGACGTGCAGGTC DNA 2: GACCTGCACGTCTGCAGCAGCC", "binding signal": 1.4}
{"binder": "decoy 887/888 (dsDNA) DNA 1: GGCTGCACCGTACGTGCTGATC DNA 2: GATCAGCACGTACGGTGCAGCC", "binding signal": 1.89}
{"binder": "decoy 849/850 (dsDNA) DNA 1: GCCTACACGTGGGTTCCC DNA 2: GGGAACCCACGTGTAGGC", "binding signal": 2.66}
{"binder": "decoy 937 (dsDNA) DNA 1: CCAGCGTAGGTGCCTCAGG DNA 2: CCTGAGGCACCTACGCTGG", "binding signal": 2.49}
{"binder": "decoy 903 (dsDNA) DNA 1: CACCTGCATACGTGGGCTCCA DNA 2: TGGAGCCCACGTATGCAGGTG", "binding signal": 1.94}
{"binder": "decoy 811/812 (dsDNA) DNA 1: ACGCTGAGTGCGTGCGGGAC DNA 2: GTCCCGCACGCACTCAGCGT", "binding signal": 3.9}
{"binder": "decoy 861/862 (dsDNA) DNA 1: CTAATACGTGCCGCTG DNA 2: CAGCGGCACGTATTAG", "binding signal": 2.18}
{"binder": "decoy 869/870 (dsDNA) DNA 1: AGCAGACGTGCAGGGT DNA 2: ACCCTGCACGTCTGCT", "binding signal": 2.28}
{"binder": "decoy 883/884 (dsDNA) DNA 1: AGAAGACGTGCAGGAT DNA 2: ATCCTGCACGTCTTCT", "binding signal": 4.37}
{"binder": "decoy 827/828 (dsDNA) DNA 1: AGGTTACGTGCGGACA DNA 2: TGTCCGCACGTAACCT", "binding signal": 4.48}
